The values that follow come from patent publication US20250026846A1 (JCR PHARMACEUTICALS, published 2025).

T1: recombinant monkey TfR (r monkey TfR: Sino Biological Inc.), crab-eating monkey TfR extracellular region with … (crab-eating monkey (Macaca fascicularis))
T1 construct: Bought from Sino Biological; also called r monkey TfR-ECD (Histag); not shown: histidine tag at the N-terminus
T1 chain: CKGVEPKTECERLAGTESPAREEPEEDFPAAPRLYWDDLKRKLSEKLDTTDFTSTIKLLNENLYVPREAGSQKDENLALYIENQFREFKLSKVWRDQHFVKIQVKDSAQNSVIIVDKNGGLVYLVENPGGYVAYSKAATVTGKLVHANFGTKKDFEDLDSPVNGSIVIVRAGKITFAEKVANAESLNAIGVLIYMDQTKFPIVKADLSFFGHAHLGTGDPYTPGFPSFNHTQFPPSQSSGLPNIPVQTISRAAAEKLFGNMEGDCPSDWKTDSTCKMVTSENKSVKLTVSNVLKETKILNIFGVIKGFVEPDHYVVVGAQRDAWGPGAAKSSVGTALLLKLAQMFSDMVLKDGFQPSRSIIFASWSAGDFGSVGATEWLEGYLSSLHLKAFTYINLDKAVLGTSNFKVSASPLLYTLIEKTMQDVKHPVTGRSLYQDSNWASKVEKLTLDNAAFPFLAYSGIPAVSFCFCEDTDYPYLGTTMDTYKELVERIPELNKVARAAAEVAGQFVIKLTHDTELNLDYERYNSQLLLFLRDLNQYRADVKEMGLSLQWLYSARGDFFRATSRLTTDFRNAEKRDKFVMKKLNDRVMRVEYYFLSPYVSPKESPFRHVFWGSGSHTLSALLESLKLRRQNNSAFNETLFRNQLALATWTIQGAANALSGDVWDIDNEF

B1: Fab GS3-IDUA (other)
light: DIVMTQTPLSLSVTPGQPASISCRSSQSLVHSNGNTYLHWYLQKPGQSPQLLIYKVSNRFSGVPDRFSGSGSGTDFTLKISRVEAEDVGVYYCSQSTHVPWTFGQGTKVEIKRTVAAPSVFIFPPSDEQLKSGTASVVCLLNNFYPREAKVQWKVDNALQSGNSQESVTEQDSKDSTYSLSSTLTLSKADYEKHKVYACEVTHQGLSSPVTKSFNRGEC
heavy: EVQLVQSGAEVKKPGESLKISCKGSGYSFMNYWLGWVRQMPGKGLEWMGDIYPGGDYPTYSEKFKVQVTISADKSISTAYLQLSSLKASDTAMYYCARSGNYDEVAYWGQGTLVTVSSASTKGPSVFPLAPSSKSTSGGTAALGCLVKDYFPEPVTVSWNSGALTSGVHTFPAVLQSSGLYSLSSVVTVPSSSLGTQTYICNVNHKPSNTKVDKKVEPKSCDKTHTGGGGSGGGGSGGGGSAEAPHLVHVDAARALWPLRRFWRSTGFCPPLPHSQADQYVLSWDQQLNLAYVGAVPHRGIKQVRTHWLLELVTTRGSTGRGLSYNFTHLDGYLDLLRENQLLPGFELMGSASGHFTDFEDKQQVFEWKDLVSSLARRYIGRYGLAHVSKWNFETWNEPDHHDFDNVSMTMQGFLNYYDACSEGLRAASPALRLGGPGDSFHTPPRSPLSWGLLRHCHDGTNFFTGEAGVRLDYISLHRKGARSSISILEQEKVVAQQIRQLFPKFADTPIYNDEADPLVGWSLPQPWRADVTYAAMVVKVIAQHQNLLLANTTSAFPYALLSNDNAFLSYHPHPFAQRTLTARFQVNNTRPPHVQLLRKPVLTAMGLLALLDEEQLWAEVSQAGTVLDSNHTVGVLASAHRPQGPADAWRAAVLIYASDDTRAHPNRSVAVTLRLRGVPPGPGLVYVTRYLDNGLCSPDGEWRRLGRPVFPTAEQFRRMRAAEDPVAAAPRPLPAGGRLTLRPALRLPSLLLVHVCARPEKPPGQVTRLRALPLTQGQLVLVWSDEHVGSKCLWTYEIQFSQDGKAYTPVSRKPSTFNLFVFSPDTGAVSGSYRVRALDYWARPGPFSDPVPYLEVPVPRGPPSPGNP
notes: also called Fab HC-GS3-IDUA
B2: Fab GS3-ARSA (other)
light: B1 light
heavy: EVQLVQSGAEVKKPGESLKISCKGSGYSFMNYWLGWVRQMPGKGLEWMGDIYPGGDYPTYSEKFKVQVTISADKSISTAYLQLSSLKASDTAMYYCARSGNYDEVAYWGQGTLVTVSSASTKGPSVFPLAPSSKSTSGGTAALGCLVKDYFPEPVTVSWNSGALTSGVHTFPAVLQSSGLYSLSSVVTVPSSSLGTQTYICNVNHKPSNTKVDKKVEPKSCDKTHTGGGGSGGGGSGGGGSRPPNIVLIFADDLGYGDLGCYGHPSSTTPNLDQLAAGGLRFTDFYVPVSLCTPSRAALLTGRLPVRMGMYPGVLVPSSRGGLPLEEVTVAEVLAARGYLTGMAGKWHLGVGPEGAFLPPHQGFHRFLGIPYSHDQGPCQNLTCFPPATPCDGGCDQGLVPIPLLANLSVEAQPPWLPGLEARYMAFAHDLMADAQRQDRPFFLYYASHHTHYPQFSGQSFAERSGRGPFGDSLMELDAAVGTLMTAIGDLGLLEETLVIFTADNGPETMRMSRGGCSGLLRCGKGTTYEGGVREPALAFWPGHIAPGVTHELASSLDLLPTLAALAGAPLPNVTLDGFDLSPLLLGTGKSPRQSLFFYPSYPDEVRGVFAVRTGKYKAHFFTQGSAHSDTTADPACHASSSLTAHEPPLLYDLSKDPGENYNLLGGVAGATPEVLQALKQLQLLKAQLDAAVTFGPSQVARGEDPALQICCHPGCTPRPACCHCPDPHA
notes: also called Fab HC-GS3-ARSA
B3: Fab GS3-GBA (other)
light: B1 light
heavy: EVQLVQSGAEVKKPGESLKISCKGSGYSFMNYWLGWVRQMPGKGLEWMGDIYPGGDYPTYSEKFKVQVTISADKSISTAYLQLSSLKASDTAMYYCARSGNYDEVAYWGQGTLVTVSSASTKGPSVFPLAPSSKSTSGGTAALGCLVKDYFPEPVTVSWNSGALTSGVHTFPAVLQSSGLYSLSSVVTVPSSSLGTQTYICNVNHKPSNTKVDKKVEPKSCDKTHTGGGGSGGGGSGGGGSARPCIPKSFGYSSVVCVCNATYCDSFDPPTFPALGTFSRYESTRSGRRMELSMGPIQANHTGTGLLLTLQPEQKFQKVKGFGGAMTDAAALNILALSPPAQNLLLKSYFSEEGIGYNIIRVPMASCDFSIRTYTYADTPDDFQLHNFSLPEEDTKLKIPLIHRALQLAQRPVSLLASPWTSPTWLKTNGAVNGKGSLKGQPGDIYHQTWARYFVKFLDAYAEHKLQFWAVTAENEPSAGLLSGYPFQCLGFTPEHQRDFIARDLGPTLANSTHHNVRLLMLDDQRLLLPHWAKVVLTDPEAAKYVHGIAVHWYLDFLAPAKATLGETHRLFPNTMLFASEACVGSKFWEQSVRLGSWDRGMQYSHSIITNLLYHVVGWTDWNLALNPEGGPNWVRNFVDSPIIVDITKDTFYKQPMFYHLGHFSKFIPEGSQRVGLVASQKNDLDAVALMHPDGSAVVVVLNRSSKDVPLTIKDPAVGFLETISPGYSIHTYLWRRQ
notes: also called Fab HC-GS3-GBA
B4: Fab GS3-SGSH (other)
light: B1 light
heavy: EVQLVQSGAEVKKPGESLKISCKGSGYSFMNYWLGWVRQMPGKGLEWMGDIYPGGDYPTYSEKFKVQVTISADKSISTAYLQLSSLKASDTAMYYCARSGNYDEVAYWGQGTLVTVSSASTKGPSVFPLAPSSKSTSGGTAALGCLVKDYFPEPVTVSWNSGALTSGVHTFPAVLQSSGLYSLSSVVTVPSSSLGTQTYICNVNHKPSNTKVDKKVEPKSCDKTHTGGGGSGGGGSGGGGSRPRNALLLLADDGGFESGAYNNSAIATPHLDALARRSLLFRNAFTSVSSCSPSRASLLTGLPQHQNGMYGLHQDVHHFNSFDKVRSLPLLLSQAGVRTGIIGKKHVGPETVYPFDFAYTEENGSVLQVGRNITRIKLLVRKFLQTQDDRPFFLYVAFHDPHRCGHSQPQYGTFCEKFGNGESGMGRIPDWTPQAYDPLDVLVPYFVPNTPAARADLAAQYTTVGRMDQGVGLVLQELRDAGVLNDTLVIFTSDNGIPFPSGRTNLYWPGTAEPLLVSSPEHPKRWGQVSEAYVSLLDLTPTILDWFSIPYPSYAIFGSKTIHLTGRSLLPALEAEPLWATVFGSQSHHEVTMSYPMRSVQHRHFRLVHNLNFKMPFPIDQDFYVSPTFQDLLNRTTAGQPTGWYKDLRHYYYRARWELYDRSRDPHETQNLATDPRFAQLLEMLRDQLAKWQWETHDPWVCAPDGVLEEKLSPQCQPLHNEL
notes: also called Fab HC-GS3-SGSH
B5: Fab GS3-PPT1 (other)
light: B1 light
heavy: EVQLVQSGAEVKKPGESLKISCKGSGYSFMNYWLGWVRQMPGKGLEWMGDIYPGGDYPTYSEKFKVQVTISADKSISTAYLQLSSLKASDTAMYYCARSGNYDEVAYWGQGTLVTVSSASTKGPSVFPLAPSSKSTSGGTAALGCLVKDYFPEPVTVSWNSGALTSGVHTFPAVLQSSGLYSLSSVVTVPSSSLGTQTYICNVNHKPSNTKVDKKVEPKSCDKTHTGGGGSGGGGSGGGGSDPPAPLPLVIWHGMGDSCCNPLSMGAIKKMVEKKIPGIYVLSLEIGKTLMEDVENSFFLNVNSQVTTVCQALAKDPKLQQGYNAMGFSQGGQFLRAVAQRCPSPPMINLISVGGQHQGVFGLPRCPGESSHICDFIRKTLNAGAYSKVVQERLVQAEYWHDPIKEDVYRNHSIFLADINQERGINESYKKNLMALKKFVMVKFLNDSIVDPVDSEWFGFYRSGQAKETIPLQETSLYTQDRLGLKEMDNAGQLVFLATEGDHLQLSEEWFYAHIIPFLG
notes: also called Fab HC-GS3-PPT1
B6: Fab GS3-ASM (other)
light: B1 light
heavy: EVQLVQSGAEVKKPGESLKISCKGSGYSFMNYWLGWVRQMPGKGLEWMGDIYPGGDYPTYSEKFKVQVTISADKSISTAYLQLSSLKASDTAMYYCARSGNYDEVAYWGQGTLVTVSSASTKGPSVFPLAPSSKSTSGGTAALGCLVKDYFPEPVTVSWNSGALTSGVHTFPAVLQSSGLYSLSSVVTVPSSSLGTQTYICNVNHKPSNTKVDKKVEPKSCDKTHTGGGGSGGGGSGGGGSLSDSRVLWAPAEAHPLSPQGHPARLHRIVPRLRDVFGWGNLTCPICKGLFTAINLGLKKEPNVARVGSVAIKLCNLLKIAPPAVCQSIVHLFEDDMVEVWRRSVLSPSEACGLLLGSTCGHWDIFSSWNISLPTVPKPPPKPPSPPAPGAPVSRILFLTDLHWDHDYLEGTDPDCADPLCCRRGSGLPPASRPGAGYWGEYSKCDLPLRTLESLLSGLGPAGPFDMVYWTGDIPAHDVWHQTRQDQLRALTTVTALVRKFLGPVPVYPAVGNHESTPVNSFPPPFIEGNHSSRWLYEAMAKAWEPWLPAEALRTLRIGGFYALSPYPGLRLISLNMNFCSRENFWLLINSTDPAGQLQWLVGELQAAEDRGDKVHIIGHIPPGHCLKSWSWNYYRIVARYENTLAAQFFGHTHVDEFEVFYDEETLSRPLAVAFLAPSATTYIGLNPGYRVYQIDGNYSGSSHVVLDHETYILNLTQANIPGAIPHWQLLYRARETYGLPNTLPTAWHNLVYRMRGDMQLFQTFWFLYHKGHPPSEPCGTPCRLATLCAQLSARADSPALCRHLMPDGSLPEAQSLWPRPLFC
notes: also called Fab HC-GS3-ASM

The target of the first test is T2, recombinant human TfR (r human TfR: Sino Biological Inc.), hTfR extracellular region with a histidine tag at … (human, UniProt P02786 89-760).
T2 construct: Bought from Sino Biological; also called r human TfR-ECD (Histag); recombinant hTfR; not shown: histidine tag at the N-terminus
As to the kind of experiment: BLI (Octet RED96), His-tagged TfR ECD on Ni-NTA sensor. On the technique in general: In BLI a coated tip is dipped into the sample, and binding shifts an interference pattern.
Usually kon stands for the second-order rate constant of association. B1: the kon worked out at 293000 M⁻¹ s⁻¹.
Still for that read-out and setting: then B2, with 670000 M⁻¹ s⁻¹.
By Kd is commonly meant the constant that tells how readily two partners part at equilibrium. As usually defined, the koff is the rate constant with which the complex falls apart. Regarding B3, the Kd was less than 0.001 nM, the koff was less than 1e-07 s⁻¹ and the on-rate constant (kon) was 623000 M⁻¹ s⁻¹.
For B4, the Kd was less than 0.001 nM, the koff was less than 1e-07 s⁻¹ and the kon was 721000 M⁻¹ s⁻¹.
Taken in the same sequence, the figures for B5 were less than 0.001 nM, less than 1e-07 s⁻¹ and 417000 M⁻¹ s⁻¹.
For the molecule B6, the Kd was determined as 0.0689 nM, the koff was 3.63e-05 s⁻¹ and the kon was determined as 526000 M⁻¹ s⁻¹.

The target in another test is T1, recombinant monkey TfR (r monkey TfR: …). The description is as above.
For B1, the Kd stood at 1.32 nM, the koff was 0.000292 s⁻¹ and the kon worked out at 221000 M⁻¹ s⁻¹.
For B2, the Kd worked out at 1.09 nM, the koff is 0.000281 s⁻¹ and the kon turned out to be 258000 M⁻¹ s⁻¹.
Turning to B3, the kon was 299000 M⁻¹ s⁻¹.
B4: the Kd is less than 0.001 nM, the koff is less than 1e-07 s⁻¹ and the kon turned out to be 388000 M⁻¹ s⁻¹.
Taken in the same sequence, the figures for B6 were 2 nM, 0.000549 s⁻¹ and 274000 M⁻¹ s⁻¹.
